The subject of data set [1] is ZnFng-WUS1 ATF (synthetic construct). Briefly: cell_activity. Conditions: endogenous WUS2 mRNA by RT-PCR relative to Act1 in corn protoplasts; range 8-12%; mock nearly zero; binding inferred from activation.
Data set [2] concerns ZnFng-WUS2 ATF (synthetic construct). Briefly: cell_activity. Conditions: endogenous WUS2 mRNA by RT-PCR relative to Act1 in corn protoplasts; range 15-60%; mock nearly zero; binding inferred from activation.
Sequence of ZnFng-WUS2 ATF (synthetic construct) (chain, as listed by the source): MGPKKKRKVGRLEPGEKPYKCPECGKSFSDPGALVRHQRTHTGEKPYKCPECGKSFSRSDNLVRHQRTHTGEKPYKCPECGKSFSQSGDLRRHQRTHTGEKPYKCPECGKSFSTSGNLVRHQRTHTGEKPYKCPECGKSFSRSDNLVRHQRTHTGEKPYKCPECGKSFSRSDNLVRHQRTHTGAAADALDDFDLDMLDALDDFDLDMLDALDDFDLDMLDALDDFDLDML

Sequence of ZnFng-WUS1 ATF (synthetic construct) (chain, as listed by the source): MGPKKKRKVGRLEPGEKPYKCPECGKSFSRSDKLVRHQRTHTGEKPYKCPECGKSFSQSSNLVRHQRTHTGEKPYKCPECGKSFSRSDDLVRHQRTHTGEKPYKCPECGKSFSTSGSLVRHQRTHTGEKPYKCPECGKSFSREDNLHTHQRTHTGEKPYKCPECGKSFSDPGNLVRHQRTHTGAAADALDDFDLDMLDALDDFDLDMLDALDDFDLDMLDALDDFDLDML

On to “GACTAGGTTGCGGAAGGG (double strand) [ZnFng-WUS1 binding site in maize WUS2 promoter]”, for which the activity in data set [1] is 10 % of actin.
For GAGGAGGATGCAGAGGTC (double strand), in data set [2], the activity was 50 % of actin.
